Test results reported in article PMC3950706, “SUMOylation of the polycomb group protein L3MBTL2 facilitates repression of its target genes” (Nucleic Acids Research, 2013).
Where no end group is shown, it is not given here. Me3 = tri-methylation (trimethyl-lysine); Me2 = di-methylation (dimethyl-lysine)

How the values were obtained:
Settings in all cases: both partners purified
[1] = molecular target: T1, recombinant full-length His-L3MBTL2 (human, UniProt Q969R5 1-705); experiment: pull-down; histone peptides immobilised by a C-terminal cysteine on SulfoLink Coupling Resin; recombinant His-tagged proteins in 25 mM Tris-HCl pH 8, 150 mM NaCl, 2 mM EDTA, 0.5% NP 40, 1 h at 4°C (time course 5-60 min); bound protein detected by anti-His western blot; for SUMOylated L3MBTL2 the in vitro SUMOylation reaction was used
T1 construct: L3MBTL2 (Lethal(3) malignant brain tumour like 2), human, full length; also called 6xHis-L3MBTL2; His-L2; source: bacterially expressed, recombinant

wild-type 3xFLAG-L3MBTL2 = molecular target: T2, wild-type 3xFLAG-L3MBTL2 (human, UniProt Q969R5 1-705); experiment: pull-down; histone peptides immobilised on resin; 3xFLAG-L3MBTL2 immunoprecipitated from N-ethylmaleimide-treated nuclear extracts of stably transfected HEK293 cells and then incubated with the peptides; bound protein detected by anti-FLAG western blot
T2 construct: L3MBTL2, human, wild type; The cellular wild-type protein is partly SUMOylated (SUMO2/3 at K675 and K700); Associated proteins may be present after the immunoprecipitation; also called FLAG-L3MBTL2 WT; 3xFLAG-L3MBTL2 WT; source: HEK293, stably transfected, immunoprecipitated from N-ethylmaleimide-treated nuclear extracts

[2] = molecular target: T3, 3xFLAG-L3MBTL2 K675/700R mutant (human, UniProt Q969R5 1-705, K675/700R | K675/700R); experiment: as above
T3 construct: L3MBTL2, human, with K675R and K700R; Associated proteins may be present after the immunoprecipitation; also called SUMOylation-defective L3MBTL2; K/R; source: HEK293, stably transfected, immunoprecipitated from N-ethylmaleimide-treated nuclear extracts

[3] = molecular target: T4, 4xMBT-repeat domain of L3MBTL2 (human, UniProt Q969R5 170-619); experiment: pull-down; histone peptides immobilised by a C-terminal cysteine on SulfoLink Coupling Resin; recombinant His-tagged proteins in 25 mM Tris-HCl pH 8, 150 mM NaCl, 2 mM EDTA, 0.5% NP 40, 1 h at 4°C (time course 5-60 min); bound protein detected by anti-His western blot; for SUMOylated L3MBTL2 the in vitro SUMOylation reaction was used
T4 construct: L3MBTL2, human, isolated 4xMBT-repeat domain, aa 170-619; also called His-4xMBT

Measured: binding result

T3 sequence (Q969R5 other isoform, or with tags, fused parts or gaps K675/700R | K675/700R | K675/700R | K675/700R | mutant): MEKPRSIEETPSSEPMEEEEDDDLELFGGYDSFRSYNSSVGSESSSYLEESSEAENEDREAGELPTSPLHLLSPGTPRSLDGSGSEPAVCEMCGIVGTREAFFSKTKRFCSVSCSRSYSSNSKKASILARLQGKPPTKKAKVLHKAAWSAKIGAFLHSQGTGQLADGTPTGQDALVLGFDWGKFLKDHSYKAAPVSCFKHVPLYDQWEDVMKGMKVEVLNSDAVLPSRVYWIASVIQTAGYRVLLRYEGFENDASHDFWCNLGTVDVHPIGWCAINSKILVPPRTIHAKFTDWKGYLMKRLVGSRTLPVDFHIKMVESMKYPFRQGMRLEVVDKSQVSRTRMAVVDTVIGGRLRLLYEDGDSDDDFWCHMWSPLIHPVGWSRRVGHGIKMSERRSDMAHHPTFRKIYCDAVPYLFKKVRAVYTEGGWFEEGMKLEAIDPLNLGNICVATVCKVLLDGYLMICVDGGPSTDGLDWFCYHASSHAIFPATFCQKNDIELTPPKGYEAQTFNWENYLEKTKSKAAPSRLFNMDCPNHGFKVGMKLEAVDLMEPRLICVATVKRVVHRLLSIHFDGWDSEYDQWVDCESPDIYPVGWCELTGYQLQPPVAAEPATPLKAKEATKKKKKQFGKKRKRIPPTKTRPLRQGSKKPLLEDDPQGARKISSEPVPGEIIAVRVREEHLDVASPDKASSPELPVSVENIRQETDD
T1 sequence (Q969R5 whole entry): as the sequence (Q969R5 other isoform, or with tags, fused parts or gaps K675/700R | K675/700R | K675/700R | K675/700R | mutant) above, with R675K, R700K counted along it
T2 sequence (Q969R5 whole entry): as the sequence (Q969R5 other isoform, or with tags, fused parts or gaps K675/700R | K675/700R | K675/700R | K675/700R | mutant) above, with R675K, R700K counted along it
T4 sequence (Q969R5 170-619): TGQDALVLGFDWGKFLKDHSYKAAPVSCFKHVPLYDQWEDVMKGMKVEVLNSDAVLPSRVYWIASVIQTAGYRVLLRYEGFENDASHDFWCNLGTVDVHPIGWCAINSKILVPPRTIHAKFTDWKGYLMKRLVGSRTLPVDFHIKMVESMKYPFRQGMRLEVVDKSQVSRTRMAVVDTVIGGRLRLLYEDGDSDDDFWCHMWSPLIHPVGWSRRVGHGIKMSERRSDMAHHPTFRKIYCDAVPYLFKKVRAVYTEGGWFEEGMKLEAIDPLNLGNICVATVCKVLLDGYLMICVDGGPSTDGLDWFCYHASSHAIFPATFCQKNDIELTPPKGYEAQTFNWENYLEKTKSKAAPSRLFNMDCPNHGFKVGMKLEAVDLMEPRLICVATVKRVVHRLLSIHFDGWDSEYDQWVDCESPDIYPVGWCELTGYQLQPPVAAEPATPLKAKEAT

B1: unmethylated histone H4 peptide (residues 16-25) (peptide)
peptide: KRHRKVLRDNC
notes: histone H4, residues 16-25; added C-terminal cysteine, by which the peptide was coupled to SulfoLink resin; also called H4K20
binds: [1] | wild-type 3xFLAG-L3MBTL2 | [2]

B2: histone H3 peptide (residues 1-15) tri-methylated at K9 (peptide)
peptide: ARTKQTARKSTGGKAC
modifications: trimethyl-lysine at K9
notes: histone H3, residues 1-15; added C-terminal cysteine, by which the peptide was coupled to SulfoLink resin; also called H3K9me3
binds: [1] | wild-type 3xFLAG-L3MBTL2 | [2]

B3: histone H4 peptide (residues 16-25) di-methylated at K20 (peptide)
peptide: KRHRK(Me2)VLRDNC
notes: histone H4, residues 16-25; added C-terminal cysteine, by which the peptide was coupled to SulfoLink resin; also called H4K20me2
binds: all assays above

B4: unmethylated histone H3 peptide (residues 1-15) (peptide)
peptide: ARTKQTARKSTGGKAC
notes: histone H3, residues 1-15; added C-terminal cysteine, by which the peptide was coupled to SulfoLink resin
binds: [1] | wild-type 3xFLAG-L3MBTL2 | [2]

B5: histone H4 peptide (residues 16-25) tri-methylated at K20 (peptide)
peptide: KRHRK(Me3)VLRDNC
notes: histone H4, residues 16-25; added C-terminal cysteine, by which the peptide was coupled to SulfoLink resin; also called H4K20me3
binds: [1] | wild-type 3xFLAG-L3MBTL2 | [2]

B6: histone H4 peptide (residues 16-25) mono-methylated at K20 (peptide)
peptide: KRHRK(Me)VLRDNC
notes: histone H4, residues 16-25; added C-terminal cysteine, by which the peptide was coupled to SulfoLink resin; also called H4K20me1
binds: [1] | wild-type 3xFLAG-L3MBTL2 | [2]

B7: histone H3 peptide (residues 1-15) di-methylated at K9 (peptide)
peptide: ARTKQTARKSTGGKAC
modifications: dimethyl-lysine at K9
notes: histone H3, residues 1-15; added C-terminal cysteine, by which the peptide was coupled to SulfoLink resin; also called H3K9me2
binds: [1] | wild-type 3xFLAG-L3MBTL2 | [2]

B8: histone H3 peptide (residues 1-15) mono-methylated at K9 (peptide)
peptide: ARTKQTARKSTGGKAC
modifications: monomethyl-lysine at K9
notes: histone H3, residues 1-15; added C-terminal cysteine, by which the peptide was coupled to SulfoLink resin; also called H3K9me1
binds: [1] | wild-type 3xFLAG-L3MBTL2 | [2]
